Target: zip (positive control of the BACTH system)
Assay: two-hybrid

“zip (positive control of the BACTH system) (domain or fragment)” was tested, and the β-galactosidase activity was 63300 Miller units.

Reference: doi:10.1101/713677
